# According to patent US20160159862A1 (PROTAGONIST THERAPEUTICS, published 2016):
# Numbered stars: 1 amine (or outer) side, 2 acyl side, 3 side chain; on linkers, the order of the positions; unused ones are H or OH. Bridge positions count the residues as written; N and C are the ends. Square brackets hold non-standard residues; d marks the D form. Phe(4-OMe) = COc1ccc(C[C@H](N[*:1])C(=O)[*:2])cc1; Phe(4-COOH) = N[C@@H](Cc1ccc(C(=O)O)cc1)C(=O)O; Phe(4-tBu) = CC(C)(C)c1ccc(C[C@H](N)C(=O)O)cc1; Phe(2-CONH2) = NC(=O)c1ccccc1C[C@H](N)C(=O)O; Bip = N[C@@H](Cc1ccc(-c2ccccc2)cc1)C(=O)O; Phe(4-F) = N[C@@H](Cc1ccc(F)cc1)C(=O)O; 1Nal = N[C@@H](Cc1cccc2ccccc12)C(=O)O; 2Nal = N[C@@H](Cc1ccc2ccccc2c1)C(=O)O; d1Nal = N[C@H](Cc1cccc2ccccc12)C(=O)O; d2Nal = N[C@H](Cc1ccc2ccccc2c1)C(=O)O; NMeR = CN[C@@H](CCCNC(=N)N)C(=O)O; hPhe = N[C@@H](CCc1ccccc1)C(=O)O; Tic = O=C(O)[C@@H]1Cc2ccccc2CN1; Aic = NC1(C(=O)O)Cc2ccccc2C1; Pen = CC(C)(S)[C@H](N)C(=O)O; dNMeK = CN[C@H](CCCCN)C(=O)O; Dab = NCC[C@H](N)C(=O)O
# B1: SEQ ID NO 88 (peptide)
# peptide: Ac-[Pen][NMeR]SDTL[Pen][2Nal][dK]-NH2
# modifications: disulfide 1-7
# SMILES: CC(=O)N[C@@H]1C(=O)N(C)[C@@H](CCCNC(=N)N)C(=O)N[C@@H](CO)C(=O)N[C@@H](CC(=O)O)C(=O)N[C@@H]([C@@H](C)O)C(=O)N[C@@H](CC(C)C)C(=O)N[C@H](C(=O)N[C@@H](Cc2ccc3ccccc3c2)C(=O)N[C@H](CCCCN)C(N)=O)C(C)(C)SSC1(C)C
# B2: SEQ ID NO 50 (peptide)
# peptide: Ac-[Pen][NMeR]SDTL[Pen][2Nal][hPhe][dK]-NH2
# modifications: disulfide 1-7
# SMILES: CC(=O)N[C@@H]1C(=O)N(C)[C@@H](CCCNC(=N)N)C(=O)N[C@@H](CO)C(=O)N[C@@H](CC(=O)O)C(=O)N[C@@H]([C@@H](C)O)C(=O)N[C@@H](CC(C)C)C(=O)N[C@H](C(=O)N[C@@H](Cc2ccc3ccccc3c2)C(=O)N[C@@H](CCc2ccccc2)C(=O)N[C@H](CCCCN)C(N)=O)C(C)(C)SSC1(C)C
# B3: SEQ ID NO 10 (peptide)
# peptide: Ac-[Pen][NMeR]SDTL[Pen][d1Nal]E[dK]-NH2
# modifications: disulfide 1-7
# SMILES: CC(=O)N[C@@H]1C(=O)N(C)[C@@H](CCCNC(=N)N)C(=O)N[C@@H](CO)C(=O)N[C@@H](CC(=O)O)C(=O)N[C@@H]([C@@H](C)O)C(=O)N[C@@H](CC(C)C)C(=O)N[C@H](C(=O)N[C@H](Cc2cccc3ccccc23)C(=O)N[C@@H](CCC(=O)O)C(=O)N[C@H](CCCCN)C(N)=O)C(C)(C)SSC1(C)C
# B4: SEQ ID NO 12 (peptide)
# peptide: Ac-[Pen][NMeR]SDTL[Pen][1Nal][dE][dNMeK]-NH2
# modifications: disulfide 1-7
# SMILES: CC(=O)N[C@@H]1C(=O)N(C)[C@@H](CCCNC(=N)N)C(=O)N[C@@H](CO)C(=O)N[C@@H](CC(=O)O)C(=O)N[C@@H]([C@@H](C)O)C(=O)N[C@@H](CC(C)C)C(=O)N[C@H](C(=O)N[C@@H](Cc2cccc3ccccc23)C(=O)N[C@H](CCC(=O)O)C(=O)N(C)[C@H](CCCCN)C(N)=O)C(C)(C)SSC1(C)C
# B5: SEQ ID NO 11 (peptide)
# peptide: Ac-[Pen][NMeR]SDTL[Pen][d2Nal]E[dK]-NH2
# modifications: disulfide 1-7
# SMILES: CC(=O)N[C@@H]1C(=O)N(C)[C@@H](CCCNC(=N)N)C(=O)N[C@@H](CO)C(=O)N[C@@H](CC(=O)O)C(=O)N[C@@H]([C@@H](C)O)C(=O)N[C@@H](CC(C)C)C(=O)N[C@H](C(=O)N[C@H](Cc2ccc3ccccc3c2)C(=O)N[C@@H](CCC(=O)O)C(=O)N[C@H](CCCCN)C(N)=O)C(C)(C)SSC1(C)C
# B6: SEQ ID NO 15 (peptide)
# peptide: Ac-[Pen][NMeR]SDTL[Pen][2Nal]E[dNMeK]-NH2
# modifications: disulfide 1-7
# SMILES: CC(=O)N[C@@H]1C(=O)N(C)[C@@H](CCCNC(=N)N)C(=O)N[C@@H](CO)C(=O)N[C@@H](CC(=O)O)C(=O)N[C@@H]([C@@H](C)O)C(=O)N[C@@H](CC(C)C)C(=O)N[C@H](C(=O)N[C@@H](Cc2ccc3ccccc3c2)C(=O)N[C@@H](CCC(=O)O)C(=O)N(C)[C@H](CCCCN)C(N)=O)C(C)(C)SSC1(C)C
# B7: SEQ ID NO 51 (peptide)
# peptide: Ac-[Pen][NMeR]SDTL[Pen]W[Aic][dK]-NH2
# modifications: disulfide 1-7
# SMILES: CC(=O)N[C@@H]1C(=O)N(C)[C@@H](CCCNC(=N)N)C(=O)N[C@@H](CO)C(=O)N[C@@H](CC(=O)O)C(=O)N[C@@H]([C@@H](C)O)C(=O)N[C@@H](CC(C)C)C(=O)N[C@H](C(=O)N[C@@H](Cc2c[nH]c3ccccc23)C(=O)NC2(C(=O)N[C@H](CCCCN)C(N)=O)Cc3ccccc3C2)C(C)(C)SSC1(C)C
# Molecular target: α4β7 integrin on human cells (human, UniProt P13612 34-1032; P26010 20-798)
# Assay: cell-based or functional assay
row,α4β7 cell (Hu) IC50 [nM],Binder
1,> 10,Ac-[Pen][NMeR]SDTL[Pen][2Nal][dE][dK]-NH2 (disulfide 1-7 (inferred); also: homodimer via DIG linker) [SEQ ID NO 29]
2,> 100,Ac-[Pen][NMeR]SDTL[Pen][1Nal][dR][dK]-NH2 (disulfide 1-7 (inferred); also: homodimer via DIG) [SEQ ID NO 114]
3,> 50,Ac-[Pen][NMeR]SDTL[Pen][Phe(2-CONH2)][dE][dK]-NH2 (disulfide 1-7 (inferred); also: homodimer linked by DIG) [SEQ ID NO 98]
4,> 100,Ac-[Pen][NMeR]SDTL[Pen]W[dH][dK]-NH2 (disulfide 1-7 (inferred); also: dimer via DIG) [SEQ ID NO 104]
5,> 50,Ac-[Pen][NMeR]SDTL[Pen]W[Phe(4-COOH)][dK]-NH2 (disulfide 1-7 (inferred); also: dimer via DIG) [SEQ ID NO 105]
6,> 10,Ac-[Pen][NMeR]SDTL[Pen]W[dW][dK]-NH2 (disulfide 1-7 (inferred); also: dimer via DIG) [SEQ ID NO 110]
7,≤ 10,Ac-[Pen][NMeR]SDTL[Pen]WE[Dab]-NH2 (disulfide 1-7 (inferred); also: homodimer linked by DIG) [SEQ ID NO 97]
8,> 500,Ac-[Pen][NMeR]SDTLC[Tic][dE][dK]-NH2 (disulfide 1-7 (inferred); also: homodimer linked by DIG) [SEQ ID NO 93]
9,> 100,Ac-[Pen][NMeR]SDTL[Pen][1Nal][dF][dK]-NH2 (disulfide 1-7 (inferred); also: dimer via DIG) [SEQ ID NO 111]
10,> 100,Ac-[Pen][NMeR]SDTL[Pen]WPK-NH2 (disulfide 1-7 (inferred); also: homodimer linked by DIG) [SEQ ID NO 95]
11,> 100,Ac-[Pen][NMeR]SDTL[Pen][Phe(3-carbamoyl)][dE][dK]-NH2 (disulfide 1-7 (inferred); also: homodimer linked by DIG) [SEQ ID NO 99]
12,> 50,Ac-[Pen][NMeR]SDTL[Pen][1Nal][dH][dK]-NH2 (disulfide 1-7 (inferred); also: homodimer via DIG) [SEQ ID NO 112]
13,≤ 10,Ac-[Pen][NMeR]SDTL[Pen][Phe(4-tBu)][dE][dK]-NH2 (disulfide 1-7 (inferred); also: dimer via DIG) [SEQ ID NO 106]
14,≤ 10,Ac-[Pen][NMeR]SDTL[Pen][Phe(4-COOH)][dE][dK]-NH2 (disulfide 1-7 (inferred); also: dimer via DIG) [SEQ ID NO 100]
15,> 100,Ac-[Pen][NMeR]SDTL[Pen]WP[dK]-NH2 (disulfide 1-7 (inferred); also: homodimer linked by DIG) [SEQ ID NO 94]
16,> 50,"Ac-[Pen][NMeR]SDTL[Pen][Phe(2,4-Cl)][dE][dK]-NH2 (disulfide 1-7 (inferred); also: dimer via DIG) [SEQ ID NO 101]"
17,> 25,Ac-[Pen][NMeR]SDTL[Pen][Phe(4-OMe)][dE][dK]-NH2 (disulfide 1-7 (inferred); also: dimer via DIG) [SEQ ID NO 103]
18,> 100,Ac-[Pen][NMeR]SDTL[Pen]W[Tic][dK]-NH2 (disulfide 1-7 (inferred); also: dimer via DIG) [SEQ ID NO 109]
19,> 500,Ac-[Pen][NMeR]SDTL[Pen][1Nal][dL][dK]-NH2 (disulfide 1-7 (inferred); also: homodimer via DIG) [SEQ ID NO 113]
20,> 100,"Ac-[Pen][NMeR]SDTL[Pen][Phe(3,4-Cl)][dE][dK]-NH2 (disulfide 1-7 (inferred); also: dimer via DIG) [SEQ ID NO 102]"
21,> 50,Ac-[Pen][NMeR]SDTL[Pen]W[dP]K-NH2 (disulfide 1-7 (inferred); also: homodimer linked by DIG) [SEQ ID NO 96]
22,> 10,Ac-[Pen][NMeR]SDTL[Pen][Bip][dE][dK]-NH2 (disulfide 1-7 (inferred); also: dimer via DIG) [SEQ ID NO 108]
23,> 25,Ac-[Pen][NMeR]SDTL[Pen][Phe(4-F)][dE][dK]-NH2 (disulfide 1-7 (inferred); also: dimer via DIG) [SEQ ID NO 107]

# Molecular target: rh integrin α4β7 (R&D Systems #5397-A30) (human) (UniProt P13612)
# Assay: α4β7-MAdCAM competition ELISA
row,IC50 [nM],Binder
1,< 10,Ac-[Pen][NMeR]SDTL[Pen][2Nal][dE][dK]-NH2 (disulfide 1-7 (inferred); also: homodimer via DIG linker) [SEQ ID NO 29]
2,> 25,Ac-[Pen][NMeR]SDTL[Pen][1Nal][dE][dK]-NH2 (disulfide 1-7 (inferred)) [SEQ ID NO 8]
3,> 10,B1
4,> 10,B2
5,> 10,B3
6,> 25,B4
7,> 25,B5
8,< 10,B6
9,> 25,B7
